Patent publication US9562084B2, “Peptides derived from NCAPG2 and their use” (NATIONAL CANCER CENTER, priority 2014, dated 2017)
Where a chain is given by its changes, count along the chain named. Names may count otherwise. Where no end group is shown, it is not given here. [ ]: non-standard residue; d: D form. pT = C[C@@H](OP(=O)(O)O)[C@H](N)C(=O)O

B1: T1010A: NCAPG2 mutant which substituted threonine with alanine at the residue number 1010 of SEQ ID NO: 7 (protein, listed as Homo sapiens)
chain: MEKRETFVQAVSKELVGEFLQFVQLDKEASDPFSLNELLDELSRKQKEELWQRLKNLLTDVLLESPVDGWQVVEAQGEDNMETEHGSKMRKSIEIIYAITSVILASVSVINESENYEALLECVIILNGILYALPESERKLQSSIQDLCVTWWEKGLPAKEDTGKTAFVMLLRRSLETKTGADVCRLWRIHQALYCFDYDLEESGEIKDMLLECFININYIKKEEGRRFLSCLFNWNINFIKMIHGTIKNQLQGLQKSLMVYIAEIYFRAWKKASGKILEAIENDCIQDFMFHGIHLPRRSPVHSKVREVLSYFHHQKKVRQGVEEMLYRLYKPILWRGLKARNSEVRSNAALLFVEAFPIRDPNLHAIEMDSEIQKQFEELYSLLEDPYPMVRSTGILGVCKITSKYWEMMPPTILIDLLKKVTGELAFDTSSADVRCSVFKCLPMILDNKLSHPLLEQLLPALRYSLHDNSEKVRVAFVDMLLKIKAVRAAKFWKICPMEHILVRLETDSRPVSRRLVSLIFNSFLPVNQPEEVWCERCVTLVQMNHAAARRFYQYAHEHTACTNIAKLIHVIRHCLNACIQRAVREPPEDEEEEDGREKENVTVLDKTLSVNDVACMAGLLEIIVILWKSIDRSMENNKEAKLYTINKFASVLPEYLKVFKDDRCKIPLFMLMSFMPASAVPPFSCGVISTLRSREEGAVDKSYCTLLDCLCSWGQVGHILELVDNWLPTEHAQAKSNTASKGRVQIHDTRPVKPELALVYIEYLLTHPKNRECLLSAPRKKLNHLLKALETSKADLESLLQTPGGKPRGFSEAAAPRAFGLHCRLSIHLQHKFCSEGKVYLSMLEDTGFWLESKILSFIQDQEEDYLKLHRVIYQQIIQTYLTVCKDVVMVGLGDHQFQMQLLQRSLGIMQTVKGFFYVSLLLDILKEITGSSLIQKTDSDEEVAMLLDTVQKVFQKMLECIARSFRKQPEEGLRLLYSVQRPLHEFITAVQSRHTDTPVHRGVLSALIAGPVVEISHQLRKVSDVEELTPPEHLSDLPPFSRCLIGIIIKSSNVVRSFLDELKACVASNDIEGIVCLTAAVHIILVINAGKHKSSKVREVAATVHRKLKTFMEITLEEDSIERFLYESSSRTLGELLNS
B2: T805A: NCAPG2 mutant which substituted threonine with alanine at the residue number 805 of SEQ ID NO: 7 (protein, listed as Homo sapiens)
chain: B1 chain with T805A, A1010T

What was measured:
human PLK1-PBD (371-594) = target: T1, human PLK1-PBD (371-594) (Homo sapiens, UniProt P53350); test: Fluorescence polarisation binding assay for the PBD of PLK1; settings: FITC-labelled peptide 10 nM, protein 0 to 4 μM
T1 construct: The human PLK1-PBD (371-594) was amplified by PCR; GST (N, cleaved yes); made in house; host or cells: E. coli Rosetta2(DE3)pLysS
Method: The human PLK1-PBD (371-594) was amplified by PCR and cloned into the pGEX6p-1 vector using the EcoRI and XhoI restriction enzyme sites. The protein was overexpressed in E. coli Rosetta2(DE3)pLysS cells (Novagen). The cells were grown at 37° C. in 3 L of Terrific Broth medium to an OD600 of 0.6, and recombinant protein expression was induced with 0.1 mM isopropyl β-D-thiogalactopyranoside (IPTG) at 20° C. The cells were further grown at 20° C. for 20 hr after IPTG induction. The purification methods were similar to methods that have been previously reported (Cheng, K. Y., et al. The crystal structure of the human polo-like kinase-1 polo box domain and its phospho-peptide complex. EMBO J 22, 5757-68 (2003)). Briefly, the cell pellet was resuspended in ice-cold HBS buffer (10 mM HEPES pH 7.5, 200 mM NaCl, 3.4 mM EDTA, 0.01% (v/v) 1-thioglycerol) and homogenized by sonication. After sonication, the cell debris was centrifuged and supernatant was applied to GST Sepharose resin (GE Healthcare). After extensive washing with HBS buffer, protein was eluted with HBS buffer supplemented with 20 mM reduced glutathione. PreScission protease (GE Healthcare) was added to eluted protein in order to remove the fused GST and the cleavage product was diluted and re-passed through GST Sepharose column. The flow through was collected and applied to Superdex 75 prep grade column (GE Healthcare) equilibrated with HBS buffer. The purified protein was concentrated to 6 mg/ml and used for fluorescence polarization binding assay or crystal screening.
For the fluorescence polarisation binding assay, FITC-labelled 1010pT (GVLSpTLI) or 1010T (GVLSTLI) (SEQ ID NO: 8) peptide was mixed with purified PBD and incubated in a buffer containing 10 mM HEPES (pH7.5), 50 mM NaCl, 1 mM EDTA, 1 mM DTT, and 0.0025% (v/v) Tween 20. The final protein concentrations ranged from 0 to 4 μM, and the final peptide concentration was 10 nM. Fluorescence polarisation was analysed 30 min after mixing the peptide and proteins in a 96-well plate using a VERSAmax microplate reader (Molecular Devices). Binding curves were fitted using GraphPad Prism software (GraphPad Software).
The human PLK1-PBD (371-594), PLK2-PBD (451-685) and PLK3-PBD (412-646) genes were cloned into pGEX6p-1 vector using EcoRI/XhoI restriction sites. […] The purified PLK-PBD proteins were concentrated and used for the fluorescence polarization binding assay.
For the fluorescence polarization binding assay, each fluorescein isothiocyanate (FITC)-labeled 1010pT (GVLSpTLI), 1010T (GVLSTLI), 1010E (GVLSELI), or 1010D (GVLSDLI) peptide was mixed with purified PLK1, PLK2 or PLK3 and incubated in a buffer containing 10 mM HEPES (pH 7.5), 50 mM NaCl, 1 mM EDTA, 1 mM DTT and 0.0025% (v/v) Tween 20. […]

[1] = tested on: HuR-7 human hepatoma cell; test: Cell survival and nucleus morphology of hepatoma cells treated with FITC-tagged NCAPG2 peptides (Opera Phenix); type: cell-based; settings: HuR-7, FITC-tagged peptide
Description: FIG. 12 illustrates NCAPG2 p The1010 (VLSpTL) and NCAPG2 The1010 (VLSTL) peptide decreased cell survival and induced mitotic defect in HuR-7 human hepatoma cell. Cell survival and nucleus morphology were detected from Opera Phenix system (PerkinElmer).

PLK1 = target: T2, PLK1 (Homo sapiens, UniProt P53350); test: Pull down assay / immunoprecipitation of Flag-tagged NCAPG2 mutants with GST-tagged PLK1; type: binding
T2 construct: expressed in transfected cells
Description: The NCAPG2 expression vectors were constructed using pcDNA3.1, pCMV-3FLAG-1, and pLL3.7 vectors with KpnI/XhoI, EcoRV/XhoI, and SmaI/XhoI restriction enzyme sites, respectively. To produce siRNA-resistant NCAPG2 mutants (Lenti-NCAPG2^R), the mutants (forward primer: 5′ GAAGACTACCTGAAGCTTCACAGA GTGATT TATCAGCAAATTATCCAGACCTACCTG-3′ (SEQ ID NO: 3), reverse primer: 5′-CAGGTAGGTCTGGATAATTTGCTGATAAATCACTCTGTGAAGCTTCAGGTAGTCTTCTTC-3′ (SEQ ID NO: 4)) were generated using a QuikChange Site-Directed Mutagenesis Kit (Stratagene). […]
For the detection of proteins using the immunoblottings, subjects were protein complexes from immunoprecipitation or whole cell lysates harvested from indicated conditions. […] Protein concentration was determined using BCA™ protein assay kit (Pierce, Rockford, USA). […] Protein expressions detected chemiluminescent signals activated by SuperSignal West Pico Chemiluminescent Substrate (Pierce Rockford, Ill., USA) reacted with horse radish peroxidase tagged secondary antibodies (Jackson ImmunoResearch Laboratories, Inc., West Grove, USA).

T1 sequence (P53350 371-594): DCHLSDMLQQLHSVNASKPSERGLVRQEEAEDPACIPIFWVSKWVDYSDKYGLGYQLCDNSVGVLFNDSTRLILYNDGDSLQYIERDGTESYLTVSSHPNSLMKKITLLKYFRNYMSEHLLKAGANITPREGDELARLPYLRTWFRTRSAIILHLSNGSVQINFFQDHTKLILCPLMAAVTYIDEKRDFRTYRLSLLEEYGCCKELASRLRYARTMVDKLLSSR
T2 sequence (P53350 whole entry): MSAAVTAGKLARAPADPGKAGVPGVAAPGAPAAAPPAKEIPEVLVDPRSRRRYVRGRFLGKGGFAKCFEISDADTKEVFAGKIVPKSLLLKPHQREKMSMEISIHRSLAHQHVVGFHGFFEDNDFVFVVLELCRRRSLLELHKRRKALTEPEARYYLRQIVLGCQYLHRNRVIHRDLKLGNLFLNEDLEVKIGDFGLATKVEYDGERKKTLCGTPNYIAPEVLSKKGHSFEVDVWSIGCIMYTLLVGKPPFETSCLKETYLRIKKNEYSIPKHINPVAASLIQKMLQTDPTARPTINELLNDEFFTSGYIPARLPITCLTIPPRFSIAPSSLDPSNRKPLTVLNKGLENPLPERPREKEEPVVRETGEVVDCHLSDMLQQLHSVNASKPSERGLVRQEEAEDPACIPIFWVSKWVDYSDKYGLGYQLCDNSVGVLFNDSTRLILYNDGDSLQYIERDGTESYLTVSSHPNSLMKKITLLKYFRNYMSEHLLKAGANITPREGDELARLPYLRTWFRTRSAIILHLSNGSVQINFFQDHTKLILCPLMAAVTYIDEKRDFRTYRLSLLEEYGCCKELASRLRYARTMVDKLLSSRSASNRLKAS

Molecule | binding to PLK1-PBD (in words) (human PLK1-PBD (371-594)) | effect on mitosis [1] | survival rate of human liver cancer cell [1] | binding of NCAPG2 mutant to PLK1 (PLK1)
GVLSELI [1010E, 7-mer peptide with glutamate as phosphor-Thr mimetic] | did not bind |  |  | 
VLSTL (listed as Homo sapiens) [NG2 The1010] |  | induced abnormal mitosis | lowered survival rate | 
VLSpTL (VLS[pT]L; listed as Homo sapiens) [NG2 p The1010, phosphorylated 5-mer NCAPG2 peptide comprising residue 1010] |  | induced abnormal mitosis | lowered survival rate | 
GVLSDLI [1010D, 7-mer peptide with aspartate as phosphor-Thr mimetic] | did not bind |  |  | 
B1 |  |  |  | inhibited
B2 |  |  |  | inhibited
